Molecular target: His-tagged recombinant amelogenin (wild-type) (mouse) (UniProt P63277)
Test: SDS PAGE with anti-amelogenin Western blot; crude 3% acetic acid E. coli extract and nickel column fractions; non-reducing SDS loading buffer, heated at 90°C for 1.5 min, 12% resolving gel; blot with rabbit anti-amelogenin antibody

stoichiometry N: 2
Substance: His-tagged recombinant amelogenin (wild-type) (from UniProt P63277 17-210) (natural protein)

Reference: paper PMC5472695
